From US7888090B2, “Mutants of O6-alkylguanine-DNA alkyltransferase” (Ecole Polytechnique Federale de Lausanne, priority 2004, dated 2011) come the findings set out here.

What all share (type): biochemical
In series [1] the test system is oligonucleotide SEQ ID NO:2 (modified in position 14). As to the kind of experiment: Reactivity against DNA-based substrates (BG-Cy3 assay with BG-modified oligonucleotide). The method, then:
The ability of wild type AGT or mutant AGT to react with alkylated DNA substrates is measured as the reaction of its inactivation by a synthetic oligonucleotide containing O^6-benzylguanine (SEQ ID NO:2, modified in position 14). Subsequently, the reactions are quenched by incubation with biotinylated O^6-alkylguanine. Samples are subjected to Western blotting and detection with streptavidin derivates to obtain kinetic constants for these substrates. Alternatively, the ability of wild type or mutant AGT to react with alkylated DNA substrates is measured via its labeling efficiency in competition with a fluorescent substrate of AGT. The reaction kinetics of AGT with BG-Cy3 (O^6-benzylguanine coupled to Cy3) is followed by fluorescence intensity measurements at various concentrations of a competing synthetic oligonucleotide containing O^6-benzylguanine (SEQ ID NO:2, modified in position 14).
(§1) Reactivity against DNA-based substrates measured with a BG-Cy3 assay: BG-Cy3 is prepared by reacting the previously described O^6-(4-aminomethyl-benzyl)guanine (Keppler et al., NatureBiotechnol. 21:86-89, 2003) with the commercially available N-hydroxysuccinimide ester of Cy3, (Cy3-NHS, Amersham). The coupling reaction is performed at ambient temperature in N,N-dimethylformamide in the presence of 1 eq. of triethylamine. The BG-Cy3 conjugate is purified by reversed-phase HPLC on a C18-column by using linear gradients from 0.1% trifluoroacetic acid to acetonitrile. After solvent evaporation BG-Cy3 is dissolved in dimethyl sulfoxide and stored at −20° C. For measuring the reactivity with DNA-based substrates, a reaction mixture containing different concentrations (0 to 5 µM) of oligonucleotide SEQ ID NO:2 (modified in position 14), GST-AGT fusion protein at 0.2 µM and BG-Cy3 at […] in reaction buffer (50 mM HEPES, pH 7.2, 1 mM DTT, 200 mg/ml BSA) is incubated in microtiterplates. Fluorescence of the Cy3 derivative (excitation 519 nm, emission at 572 nm) is measured on a Spectramax Gemini plate reader (Molecular Devices).

Series [2] can be described thus: Reactivity towards N^9-modified O^6-benzylguanine derivatives (preblocking, BG-Cy3 assay). The note with it: 100 µM BG, 15 min. The protocol: FIG. 3: Reactivity of AGT mutants with N^9-modified BG derivatives. 10 µM AGTM (grey bars) or PGEG-hAGT (black bars) were preblocked with 100 µM N^9-modified BG derivatives (see list below), and subsequently labeled with 20 µM BG-Cy3. After 1 h reaction time, fluorescence intensity (FI) indicated in arbitrary units [a.u.] at 595 nm is measured. The black bold line is set at the reading for condition 1 corresponding to background fluorescence of the fluorophore not attached to protein. Values above this line indicate slow or incomplete reaction with N^9-modified BG-derivative. • 1 Fluorescence of BG-Cy3 without protein; background fluorescence. • 2 Reaction with BG-Cy3; no preblocking, positive control. • 3 Reaction with BG-Cy3, preblocked with 100 µM BG. • 4 Reaction with BG-Cy3, preblocked with 100 µM N^9-isobutyl-O^6-benzylguanine. • 5 Reaction with BG-Cy3, preblocked with 100 µM N^9-propyl-O^6-benzylguanine. • 6 Reaction with BG-Cy3, preblocked with 100 µM N^9-cyanomethyl-O^6-benzylguanine.
Reactivity of AGT towards N^9-modified O^6-benzylguanine derivatives: The experiment is based on the BG-Cy3 assay. Upon reaction of AGT with BG-Cy3, an increase of fluorescence emission intensity of Cy3 by a factor 2-3 can be observed. […]

Series [3] is described as follows: Reaction of two AGT variants in one sample with CPTG and BG-Bt. The note with it: CPTG and BG-Bt both at 5 μM, 30 minutes. The protocol: FIG. 2: Western blot of the reaction of wild type hAGT (GST-hAGT fusion protein) and AGTM with the two substrates N^9-cyclopentyl-O^6-bromophenyl-guanine (CPTG) and biotinylated O^6-benzylguanine (BG-Bt, substance 3a of Juillerat et al. 2003) as described in Example 7. BG-Bt is present in all samples at 5 μM. Detection with neutravidin-peroxidase conjugate and luminescent peroxidase substrate detecting any AGT reacted with BG-Bt. Even under simultaneous incubation with identical concentrations of CPTG and BG-Bt only about 5% of GST-hAGT reacts with substrate BG-Bt.
Within the experiment two tags with different size for the two AGT proteins are used: The His-tagged AGTM (˜20 kDa) and GST-hAGT (cloned and prepared as described in Example 1, but starting with the wild type hAGT gene, ˜48 kDa) are diluted to 0.2 μM and 1.2 μM final concentration, respectively, in reaction buffer containing 50 mM HEPES, 1 mM DTT, 200 mg/mL BSA (pH 7.3). The sample is incubated with a mixture of substrates N^9-cyclopentyl-O^6-bromophenyl-guanine (CPTG; 0, 5 and 10 μM final concentrations) and biotinylated O^6-benzylguanine (BG-Bt, 5 μM final concentration) for 30 minutes. The reaction is quenched by addition of SDS-Laemmli buffer and subjected to Western blotting analysis (Example 1). As the two AGT variants have different masses, the two proteins can be separated on an acrylamide gel and analyzed independently. […] At the same concentration (both substrates at 5 μM final concentration), 95% of GST-hAGT reacts with CPTG, versus only 5% of His-tagged AGTM.

A short description of series [4]: BG-Cy3 activity assay (reaction rate of AGT mutants). The note with it: divided by value for wild type hAGT; purified GST fusion proteins (p.). The protocol: as §1
The amplified products are cloned in fusion to the g3 gene of filamentous phage in the vector pAK100 via SfiI restriction sites. The resulting gene libraries are used for phage display as described under Example 4. The mutants of the libraries are selected with 5 to 50 nM of BG-Bt for 10 min. Selected mutants are subcloned into pGEX using the primers SEQ ID NO:3 and SEQ ID NO:13. The reaction rate of mutant AGTs is determined as described in Example 6, Reactivity against DNA-based substrates (BG-Cy3 assay).
For the activity assay purified GST fusion proteins were used for mutants marked with “p.” (prepared as described under Example 1); periplasmic extracts were used for mutants marked with “x.” (prepared as described under Example 2).

B1: AGTM: AGT mutant Cys62Ala, Gln115Ser, Gln116His, Lys125Ala, Ala127Thr, Arg128Ala, Gly131Lys, Gly132Thr, Met134Leu, Arg135Ser, Cys150Asn, Ser151Ile, Ser152Asn, Asn157Gly, Ser159Glu, truncated after … (protein, UniProt P16455 1-207, looked up, variant C62A Q115S Q116H K125A A127T R128A G131K G132T M134L R135S C150N S151I S152N N157G S159E del183-207)
Methylated-DNA--protein-cystei …: MDKDCEMKRTTLDSPLGKLELSGCEQGLHEIKLLGKGTSAADAVEVPAPAAVLGGPEPLMQATAWLNAYFHQPEAIEEFPVPALHHPVFQQESFTRQVLWKLLKVVKFGEVISYSHLAALAGNPAATAAVKTALSGNPVPILIPCHRVVNINGAVGGYEGGLAVKEWLLAHEGHRLGKPGLG
modifications: His tag
In the case of B1, in series [1], the “reduced reactivity with DNA substrates (factor)” value is at least 100. The “reaction with BG-Cy3 in presence of BG-modified oligonucleotide” value in series [1] (up to 5 µM BG-modified oligonucleotide) is “no reduction”. Besides, the “AGT remaining active after preblocking with BG” value in series [2] came to 5%. For the same molecule, the “fraction of protein reacting with CPTG” value in series [3] turned out to be 5%. This molecule also came in with a Relative reaction rate in series [4] of 2.72.
